Source: patent publication US9173950B2, “Vitamin D-ghrelin conjugates” (Extend Biosciences, Inc., priority 2012, dated 2015)
Read-outs that look alike come from different tables or passages of the source.

Assays:
[1] = human, in vivo; cited from earlier work
[2] = Pharmacokinetics of rGhrelin and rGhrelin-carrier conjugate after IV injection, plasma ELISA; type: in vivo, Sprague Dawley rats; settings: 0.1 mg/kg IV
Protocol: Pharmacokinetics of rGhrelin (SEQ ID NO:6) or the rGhrelin-carrier conjugate was studied in Sprague Dawley rats. Briefly, 0.1 mg/kg of each molecule was injected separately into the rats by intravenous (IV) injection. Samples of plasma were collected at 30 mins, 60 mins, 120 mins, 240 mins, 360 mins, 24 hrs and 48 hrs. Samples were analyzed using a commercial ELISA kit validated for analyzing rGhrelin from rat plasma (Millipore, Cat. #EZRGRT-91K). […] Thus, ghrelin in a conjugated form is a useful therapeutic for the treatment of ghrelin-responsive diseases such as cachexia, anorexia and frailty in the elderly.

GHS-R = molecular target: T1, GHS-R (Homo sapiens, UniProt Q92847); assay: Cell-based ghrelin receptor agonist assay, calcium flux (FLIPR) in GHS-R-expressing CHO-K1 cells; settings: in the presence of 10% serum that contains DBP
T1 construct: host or cells: CHO-K1
T1 sequence (Q92847 whole entry, species assumed): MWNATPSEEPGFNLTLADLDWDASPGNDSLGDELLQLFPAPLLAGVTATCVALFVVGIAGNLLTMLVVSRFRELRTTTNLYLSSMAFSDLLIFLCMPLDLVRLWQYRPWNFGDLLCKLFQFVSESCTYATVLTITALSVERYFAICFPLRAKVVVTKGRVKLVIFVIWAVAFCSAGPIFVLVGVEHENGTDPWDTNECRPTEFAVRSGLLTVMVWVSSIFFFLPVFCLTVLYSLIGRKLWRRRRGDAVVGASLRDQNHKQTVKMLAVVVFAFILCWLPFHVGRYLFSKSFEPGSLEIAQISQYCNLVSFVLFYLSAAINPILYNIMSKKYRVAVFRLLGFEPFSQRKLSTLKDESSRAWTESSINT
Protocol: The test compounds were added to GHS-R-expressing CHO-K1 cell cultures. […] The activity was measured by a calcium flux-based assay developed by GenScript USA Inc. for the FLIPR™ (Fluorescence Imaging Plate Reader) high-throughput cellular screening instrument.
CHO-K1 cells expressing GHS-R were cultured in Ham's F12 supplemented with 10% fetal bovine serum, 500 mg/mL G418 and were passaged in order to maintain optimal cell health. The cells were seeded in a 384-well black-wall, clear-bottom plate at a density of 20,000 cells per well in 20 μL of growth medium 18 hours prior to the assay and maintained at 37° C./5% CO2. […] The intracellular calcium levels in the cells were measured for 20 seconds using the FLIPR™ instrument prior to addition of the test articles. […] Changes in intracellular calcium levels were measured for an additional 100 sec (21 to 120 seconds).
The average value of the 20 second reading (1 to 20 seconds) was calculated as the baseline reading and the relative fluorescent units (ΔRFU) intensity values were calculated with the maximal fluorescent units (21 to 120 seconds) subtracting the average value of baseline reading. […]
The % activation of compound was calculated using the following equation: % activation=(ΔRFUCompound−ΔRFUBackground)/(ΔRFUAgonist control−ΔRFUBackground)}*100% activation was then plotted as a function of the log of the cumulative doses of compounds. […]

[3] = Pharmacokinetics of FGF21 and FGF21-carrier conjugate after SC injection, plasma ELISA; type: in vivo, Sprague Dawley rats; settings: 0.1 mg/kg SC
Protocol: Pharmacokinetics of FGF21 (SEQ ID NO:3) or the FGF21-carrier conjugate was studied in Sprague Dawley rats. Briefly, 0.1 mg/kg of each molecule was injected separately into the rats by SC injection. Samples of plasma were collected at 30 mins, 60 mins, 120 mins, 240 mins, 360 mins, 24 hrs and 48 hrs. Samples were analyzed using a commercial ELISA kit validated for FGF21 (Millipore, Cat. #EZHFGF21-19K).

CCCCCCCC(=O)OC[C@H](NC(=O)[C@H](CO)NC(=O)CN)C(=O)N[C@@H](Cc1ccccc1)C(=O)N[C@@H](CC(C)C)C(=O)N[C@@H](CO)C(=O)N1CCC[C@H]1C(=O)N[C@@H](CCC(=O)O)C(=O)N[C@@H](Cc1cnc[nH]1)C(=O)N[C@@H](CCC(N)=O)C(=O)N[C@@H](CCCNC(=N)N)C(=O)N[C@H](C(=O)N[C@@H](CCC(N)=O)C(=O)N[C@@H](CCC(N)=O)C(=O)N[C@@H](CCCNC(=N)N)C(=O)N[C@@H](CCCCN)C(=O)N[C@@H](CCC(=O)O)C(=O)N[C@@H](CO)C(=O)N[C@@H](CCCCN)C(=O)N[C@@H](CCCCN)C(=O)N1CCC[C@H]1C(=O)N1CCC[C@H]1C(=O)N[C@@H](C)C(=O)N[C@@H](CCCCN)C(=O)N[C@@H](CC(C)C)C(=O)N[C@@H](CCC(N)=O)C(=O)N1CCC[C@H]1C(=O)N[C@@H](CCCNC(=N)N)C(=O)O)C(C)C [ghrelin]
half-life [1]: 11 min

CCCCCCCC(=O)OC[C@H](NC(=O)[C@H](CO)NC(=O)CN)C(=O)N[C@@H](Cc1ccccc1)C(=O)N[C@@H](CC(C)C)C(=O)N[C@@H](CO)C(=O)N1CCC[C@H]1C(=O)N[C@@H](CCC(=O)O)C(=O)N[C@@H](Cc1c[nH]cn1)C(=O)N[C@@H](CCC(N)=O)C(=O)N[C@@H](CCCCN)C(=O)N[C@@H](C)C(=O)N[C@@H](CCC(N)=O)C(=O)N[C@@H](CCC(N)=O)C(=O)N[C@@H](CCCNC(=N)N)C(=O)N[C@@H](CCCCN)C(=O)N[C@@H](CCC(=O)O)C(=O)N[C@@H](CO)C(=O)N[C@@H](CCCCN)C(=O)N[C@@H](CCCCN)C(=O)N1CCC[C@H]1C(=O)N1CCC[C@H]1C(=O)N[C@@H](C)C(=O)N[C@@H](CCCCN)C(=O)N[C@@H](CC(C)C)C(=O)N[C@@H](CCC(N)=O)C(=O)N1CCC[C@H]1C(=O)N[C@@H](CCCNC(=N)N)C(=O)N[C@@H](CS)C(=O)O [rGhrelin, reference compound]
half-life ([2]; rat, in vivo, Sprague Dawley rats, plasma, read-out: half-life (WinNonLin) (converted)): 22.2 min

rGhrelin-carrier conjugate: Rat ghrelin peptide (SEQ ID NO:6) conjugated via free cysteine to the Vitamin D3-PEG-maleimide carrier of Example 1 (GSSFLSPEHQKAQQRKESKKPPAKLQPRC; Vitamin D3-PEG-maleimide carrier)
half-life (WinNonLin) ([2]; Sprague Dawley rats, plasma): 480 min
improvement in half-life vs rGhrelin ([2]; rats): 22 fold
interference in receptor binding and activation (GHS-R): No interference

B1: FGF21-carrier conjugate: Modified FGF21 (SEQ ID NO:3) conjugated through its free cysteine to the Vitamin D3-PEG-maleimide carrier of Example 1 (conjugate)
chain: MGSHHHHHHSSGENLYFQGHPCPDSSPLLQFGGQVRQRYLYTDDAQQTEAHLEIREDGTVGGAADQSPESLLQLKALKPGVIQILGVKTSRFLCQRPDGALYGSLHFDPEACSFRELLLEDGYNVYQSEAHGLPLHLPGNKSPHRDPAPRGPARFLPLPGLPPALPEPPGILAPQPPDVGSSDPLSMVEPSQGRSPSYASP
modifications: Vitamin D3-PEG-maleimide carrier
area under the curve (AUC) ([3]; Sprague Dawley rats, plasma): 1047.98 ng·h/mL
average Cmax ([3]; Sprague Dawley rats, plasma): 143.526 ng/mL
increase in bioavailability (ratio of average Cmax, conjugate vs FGF21) ([3]; rats): 380 fold
increase in drug exposure (ratio of mean AUC, conjugate vs FGF21) ([3]; rats): 675 fold
